Experimental data published in patent US20240158497A1 (published 2024).

B1: bsAb19139D (bispecific antibody, V domains shown)
VH 1: QVQLVESGGGVVQPGRSLRLSCTASGFTFSSYAMYWVRQAPGKGLEWVSVIYYDGSYKYYADSVKGRFTISRDNSKNTLYLQMDSLRAEDTAVYYCASYNWNYWYFDFWGRGTLVTVSS
VH 2: QVQLVESGGGVVQPGGSLRLSCAASGFTFSTYDIHWVRQAPGKGLEWVAVISFDGSNRNYGDSVKGRFTISRDNSDNTLFLEMNNLRFEDTAVYYCAKEGYGVDFQHWGQGTLVTVSS
VL: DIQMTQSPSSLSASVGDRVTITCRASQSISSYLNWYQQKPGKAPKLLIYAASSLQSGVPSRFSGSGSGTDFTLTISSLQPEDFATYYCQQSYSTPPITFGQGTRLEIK
notes: two different heavy chains with a common light chain
B2: bsAb19141D (bispecific antibody, V domains shown)
VH 1: QVQLVESGGGVVQPGRSLRLSCTASGFTFSSYAMYWVRQAPGKGLEWVSVIYYDGSYKYYADSVKGRFTISRDNSKNTLYLQMDSLRAEDTAVYYCASYNWNYWYFDFWGRGTLVTVSS
VH 2: EVQLVESGGGVVRPGGSLRLSCTASGFTFDDYGMSWVRQAPGKGLEWVSGINWNGGRTEYADAVKGRFIISRDNAKNSLYLQMNSLRAEDTALYFCARTELRWDYWGQGTLVTVSS
VL: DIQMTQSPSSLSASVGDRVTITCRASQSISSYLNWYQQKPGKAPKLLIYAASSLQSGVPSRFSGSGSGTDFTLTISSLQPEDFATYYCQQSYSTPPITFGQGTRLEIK
notes: common light chain
B3: bsAb19142D (bispecific antibody, V domains shown)
VH 1: QVQLVESGGGVVQPGRSLRLSCTASGFTFSSYAMYWVRQAPGKGLEWVSVIYYDGSYKYYADSVKGRFTISRDNSKNTLYLQMDSLRAEDTAVYYCASYNWNYWYFDFWGRGTLVTVSS
VH 2: EVQLVESGGGLVQPGGSLRLSCAASGLTFSSYEMNWVRQAPGKGLEWVSHISSAGSTKYYADSVKGRFTISRDNAKNSLFLQMNSLRAEDTAIYYCAGYNYAYYYFGVDVWGQGTTVTVSS
VL: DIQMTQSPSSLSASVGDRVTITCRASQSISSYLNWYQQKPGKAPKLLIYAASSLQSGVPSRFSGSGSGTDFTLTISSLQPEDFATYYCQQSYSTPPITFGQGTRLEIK
notes: common light chain
B4: bsAb19144D (bispecific antibody, V domains shown)
VH 1: QVQLVESGGGVVQPGRSLRLSCTASGFTFSSYAMYWVRQAPGKGLEWVSVIYYDGSYKYYADSVKGRFTISRDNSKNTLYLQMDSLRAEDTAVYYCASYNWNYWYFDFWGRGTLVTVSS
VH 2: QVQLVQSGAEVKKPGASVKVSCKASGYTFTSLGISWVRQAPGQGLEWMGWISAYSGNRDYAQKFQGRVTMTTDTSTSTAYMELRSLRSDDTAVYYCARSLRFDYWGQGTLVTVSS
VL: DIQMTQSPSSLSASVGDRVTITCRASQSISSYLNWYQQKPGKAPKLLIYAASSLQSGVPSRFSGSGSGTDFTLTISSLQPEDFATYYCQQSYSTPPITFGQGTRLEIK
notes: common light chain
B5: bsAb19143D (bispecific antibody, V domains shown)
VH 1: QVQLVESGGGVVQPGRSLRLSCTASGFTFSSYAMYWVRQAPGKGLEWVSVIYYDGSYKYYADSVKGRFTISRDNSKNTLYLQMDSLRAEDTAVYYCASYNWNYWYFDFWGRGTLVTVSS
VH 2: QLQLQESGPGLVKPSETLSLICTVSGGSISSNNYYWGWIRQPPGKGLEWIGNLYGSGSTYYNPSLKSRVTISVDTSKNQFSLKLSFVTAADTAVYHCARWDTNGGAFDIWGQGTMVTVSS
VL: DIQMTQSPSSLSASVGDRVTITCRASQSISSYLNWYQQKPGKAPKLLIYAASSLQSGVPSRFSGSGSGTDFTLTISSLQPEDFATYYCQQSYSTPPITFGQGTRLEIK
notes: common light chain
B6: bsAb19140D (bispecific antibody, V domains shown)
VH 1: QVQLVESGGGVVQPGRSLRLSCTASGFTFSSYAMYWVRQAPGKGLEWVSVIYYDGSYKYYADSVKGRFTISRDNSKNTLYLQMDSLRAEDTAVYYCASYNWNYWYFDFWGRGTLVTVSS
VH 2: QVQLQESGPGLVKPSETLSLTCTVSGGSISNYYWTWIRQPPGKGLEWIGHISNSGTTNYNPSLKSRVTISVDTSKNQFSLKLTSVTAADTAVYYCARLPLGIAAVDTDYYYYFGMDVWGQGTTVTVSS
VL: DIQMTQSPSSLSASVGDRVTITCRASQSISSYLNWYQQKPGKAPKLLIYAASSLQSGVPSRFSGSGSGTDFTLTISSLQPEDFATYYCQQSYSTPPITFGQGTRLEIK
notes: common light chain
B7: bsAb19145D (bispecific antibody, V domains shown)
VH 1: QVQLVESGGGVVQPGRSLRLSCTASGFTFSSYAMYWVRQAPGKGLEWVSVIYYDGSYKYYADSVKGRFTISRDNSKNTLYLQMDSLRAEDTAVYYCASYNWNYWYFDFWGRGTLVTVSS
VH 2: EVQLVESGGGLVQPGRSLRLSCAASGFTLDDFAMHWVRQAPGKGLEWVSGISWNSGNIGYADSVKGRFTISRDNARNSLYLQMNSLRAEDTALYYCTSGYYLYYAMDVWGQGTTVTVSS
VL: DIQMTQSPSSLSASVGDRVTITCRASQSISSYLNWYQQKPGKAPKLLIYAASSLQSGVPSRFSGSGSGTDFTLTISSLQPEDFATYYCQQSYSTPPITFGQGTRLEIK
notes: common light chain
B8: bsAb19146D (bispecific antibody, V domains shown)
VH 1: QVQLVESGGGVVQPGRSLRLSCTASGFTFSSYAMYWVRQAPGKGLEWVSVIYYDGSYKYYADSVKGRFTISRDNSKNTLYLQMDSLRAEDTAVYYCASYNWNYWYFDFWGRGTLVTVSS
VH 2: QVQLVQSGPEVKKPGSSVKVSCKASGGTIDRNEITWVRQAPGQGLEWMGVIIPILGEAHYERKFQGRLTITMDESTSTAYMELSNLRSEDTAVYYCARERAARGYLDYWGQGTLVTVSS
VL: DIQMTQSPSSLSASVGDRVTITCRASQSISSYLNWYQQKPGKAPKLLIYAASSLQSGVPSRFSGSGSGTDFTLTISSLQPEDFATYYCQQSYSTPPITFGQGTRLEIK
notes: common light chain

Legend:
[1] = target: T1, human LEPR extracellular domain expressed with a C-terminal myc-myc-hexahistidine tag (human, UniProt P48357 22-839); test: SPR Biacore 4000, bsAb captured by anti-human Fc, 25 C
T1 construct: Monomeric reagent; the whole entry is the construct with its tag; also called hLEPR-MMH; hLEPR.mmh
Procedure: (§1) Equilibrium dissociation constants (KD values) for LEPR and GP130 binding to purified anti-LEPR/GP130 bispecific antibodies were determined using a real-time surface plasmon resonance biosensor using a Biacore 4000 instrument. All binding studies were performed in 10 mM HEPES, 150 mM NaCl, 3 mM EDTA, and 0.05% v/v Surfactant Tween-20, pH 7.4 (HBS-ET) running buffer at 25° C. and 37° C. The Biacore sensor surface was first derivatized by amine coupling with a monoclonal mouse anti-human Fc antibody (GE, #BR-1008-39) to capture anti-LEPR/GP130 bispecific antibodies. […] Different concentrations of LEPR or GP130 reagents were first prepared in HBS-ET running buffer (100 nM-3.7 nM; 3-fold serial dilution) and were injected over anti-human Fc captured anti-LEPR/GP130 bispecific antibody surface for 4 minutes at a flow rate of 30 μL/minute, while the dissociation of bispecific antibody bound LEPR or GP130 reagent was monitored for 10 minutes in HBS-ET running buffer. Kinetic association (kₐ) and dissociation (kd) rate constants were determined by fitting the real-time binding sensorgrams to a 1:1 binding model with mass transport limitation using Scrubber 2.0c curve-fitting software. Binding dissociation equilibrium constants (KD) and dissociative half-lives (t ½) were calculated from the kinetic rate constants as: […]

[2] = target: T2, Macaca Fascicularis LEPR extracellular domain expressed with a C-terminal myc-myc-hexahistidine tag (Macaca fascicularis, UniProt Q9MYL0 22-837 (rhesus entry)); test: as above
T2 construct: Monomeric reagent; the whole entry is the construct with its tag; also called mfLEPR-MMH
Procedure: as §1

[3] = target: T1, human LEPR extracellular domain …; test: SPR Biacore 4000, bsAb captured by anti-human Fc, 37 C
Procedure: as §1

[4] = target: T2, Macaca Fascicularis LEPR extracellular …; test: as above
Procedure: as §1

T1 sequence (P48357 other isoform, or with tags, fused parts or gaps): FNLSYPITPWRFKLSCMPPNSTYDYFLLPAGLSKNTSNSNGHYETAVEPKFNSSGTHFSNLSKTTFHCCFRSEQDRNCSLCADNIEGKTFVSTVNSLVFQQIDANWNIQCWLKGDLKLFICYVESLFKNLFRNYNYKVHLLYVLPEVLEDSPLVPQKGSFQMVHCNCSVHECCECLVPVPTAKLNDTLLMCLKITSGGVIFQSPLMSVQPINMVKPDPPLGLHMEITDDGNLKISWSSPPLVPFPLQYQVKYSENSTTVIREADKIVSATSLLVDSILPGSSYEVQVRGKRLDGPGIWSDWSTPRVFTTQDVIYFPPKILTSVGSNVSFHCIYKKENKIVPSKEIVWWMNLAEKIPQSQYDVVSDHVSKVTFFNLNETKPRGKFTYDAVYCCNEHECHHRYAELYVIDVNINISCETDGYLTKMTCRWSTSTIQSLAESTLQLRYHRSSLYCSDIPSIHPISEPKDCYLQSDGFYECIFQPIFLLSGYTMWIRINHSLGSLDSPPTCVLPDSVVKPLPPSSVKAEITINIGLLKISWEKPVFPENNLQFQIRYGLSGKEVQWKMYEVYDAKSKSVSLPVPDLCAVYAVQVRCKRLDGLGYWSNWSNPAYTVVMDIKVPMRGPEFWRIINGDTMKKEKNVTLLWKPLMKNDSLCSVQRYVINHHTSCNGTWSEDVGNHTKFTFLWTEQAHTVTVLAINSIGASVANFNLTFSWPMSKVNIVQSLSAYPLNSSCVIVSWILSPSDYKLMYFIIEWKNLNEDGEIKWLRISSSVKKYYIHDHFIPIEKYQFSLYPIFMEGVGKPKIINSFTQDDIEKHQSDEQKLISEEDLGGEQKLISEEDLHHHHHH
T2 sequence (Q9MYL0 other isoform, or with tags, fused parts or gaps): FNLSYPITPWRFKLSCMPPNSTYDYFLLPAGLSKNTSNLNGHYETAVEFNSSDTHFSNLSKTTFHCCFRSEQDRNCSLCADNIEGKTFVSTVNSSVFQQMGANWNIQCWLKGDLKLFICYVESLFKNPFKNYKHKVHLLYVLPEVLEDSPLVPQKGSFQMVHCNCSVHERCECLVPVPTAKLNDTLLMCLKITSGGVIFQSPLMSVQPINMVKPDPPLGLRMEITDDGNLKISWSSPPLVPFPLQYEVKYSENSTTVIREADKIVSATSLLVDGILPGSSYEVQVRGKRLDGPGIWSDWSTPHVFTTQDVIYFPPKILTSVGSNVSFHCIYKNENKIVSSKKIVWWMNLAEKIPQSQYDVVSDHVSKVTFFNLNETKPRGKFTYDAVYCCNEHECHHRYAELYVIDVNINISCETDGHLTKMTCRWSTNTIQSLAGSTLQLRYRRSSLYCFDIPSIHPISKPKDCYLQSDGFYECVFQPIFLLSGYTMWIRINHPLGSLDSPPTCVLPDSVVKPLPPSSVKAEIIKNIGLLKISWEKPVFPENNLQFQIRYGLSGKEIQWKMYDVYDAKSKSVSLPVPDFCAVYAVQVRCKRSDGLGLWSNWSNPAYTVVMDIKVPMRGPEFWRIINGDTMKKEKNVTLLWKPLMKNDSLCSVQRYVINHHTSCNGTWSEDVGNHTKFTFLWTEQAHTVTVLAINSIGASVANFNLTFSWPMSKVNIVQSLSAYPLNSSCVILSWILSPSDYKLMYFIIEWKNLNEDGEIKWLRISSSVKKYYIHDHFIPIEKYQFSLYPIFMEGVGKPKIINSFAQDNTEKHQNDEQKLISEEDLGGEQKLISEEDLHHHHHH

Binder	100 nM hLEPR-MMH Bound (RU) [1] [RU]	Kd [1] [nM]	koff [1] [s⁻¹]	kon [1] [M⁻¹ s⁻¹]	t½ [1] [min]	100 nM mfLEPR-MMH Bound (RU) [2] [RU]	Kd [2] [nM]	koff [2] [s⁻¹]	kon [2] [M⁻¹ s⁻¹]	t½ [2] [min]	100 nM hLEPR-MMH Bound (RU) [3] [RU]	Kd [3] [nM]	koff [3] [s⁻¹]	kon [3] [M⁻¹ s⁻¹]	t½ [3] [min]	100 nM mfLEPR-MMH Bound (RU) [4] [RU]	Kd [4] [nM]	koff [4] [s⁻¹]	kon [4] [M⁻¹ s⁻¹]	t½ [4] [min]
B1	41	7.09	0.000171	24100	68	103	2.93	0.000128	43600	90	67	21.2	0.000762	35800	15	163	5.42	0.000559	103000	21
B2	45	5.91	0.000151	25400	77	110	2.86	0.000124	43300	93	74	16.6	0.000589	35400	20	173	5.05	0.000522	103000	22
B3	46	7.76	0.000175	22500	66	112	2.74	0.000126	45900	92	74	18.6	0.000633	34000	18	172	5.57	0.000529	94900	22
B4	48	6.48	0.000159	24600	73	114	3.02	0.000124	41100	93	78	16.2	0.000597	36800	19	178	5.22	0.000517	99100	22
B5	45	7.31	0.000182	24900	64	111	3.04	0.000136	44800	85	72	21.5	0.000763	35500	15	171	5.74	0.000551	95900	21
B6	47	7.36	0.00018	24500	64	112	2.69	0.000121	45000	95	75	21.4	0.000818	38200	14	175	5.6	0.000572	102000	20
B7	41	6.62	0.000165	24900	70	102	2.75	0.000123	44900	94	66	20.8	0.000805	38600	14	162	5.48	0.000566	103000	20
B8	45	8.16	0.000179	22000	64	107	2.63	0.000113	42900	102	69	21.3	0.000825	38700	14	164	5.68	0.000568	100000	20
